The values that follow come from patent US12460006B2, “Antibodies against integrin alpha 11 beta 1” (Momenta Pharmaceuticals, Inc., priority 2019, dated 2025).

One assay concerns α1β1, α2β1 and/or α10β1. Briefly: Counter-screen for cross-reactivity to other collagen receptors. Format: binding, human. To be noted: cross-reactivity to α1β1, α2β1, α10β1. A digest of the protocol:
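Cross-reactivity was checked by ELISA counter-screen on human α1β1, α2β1 and α10β1. Tested material was hybridoma clones from rats or mice immunized with α11β1, previously selected for binding to soluble human and mouse α11β1.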
On the technique in general: Counterscreens check selectivity or assay interference.

The target of assay [1] is T1, α11β1 expressed on the surface of CHO-K1 cells (Homo sapiens, UniProt Q9UKX5).
T1 construct: expressed in transfected cells; host or cells: CHO-K1
T1 sequence (Q9UKX5 23-1188): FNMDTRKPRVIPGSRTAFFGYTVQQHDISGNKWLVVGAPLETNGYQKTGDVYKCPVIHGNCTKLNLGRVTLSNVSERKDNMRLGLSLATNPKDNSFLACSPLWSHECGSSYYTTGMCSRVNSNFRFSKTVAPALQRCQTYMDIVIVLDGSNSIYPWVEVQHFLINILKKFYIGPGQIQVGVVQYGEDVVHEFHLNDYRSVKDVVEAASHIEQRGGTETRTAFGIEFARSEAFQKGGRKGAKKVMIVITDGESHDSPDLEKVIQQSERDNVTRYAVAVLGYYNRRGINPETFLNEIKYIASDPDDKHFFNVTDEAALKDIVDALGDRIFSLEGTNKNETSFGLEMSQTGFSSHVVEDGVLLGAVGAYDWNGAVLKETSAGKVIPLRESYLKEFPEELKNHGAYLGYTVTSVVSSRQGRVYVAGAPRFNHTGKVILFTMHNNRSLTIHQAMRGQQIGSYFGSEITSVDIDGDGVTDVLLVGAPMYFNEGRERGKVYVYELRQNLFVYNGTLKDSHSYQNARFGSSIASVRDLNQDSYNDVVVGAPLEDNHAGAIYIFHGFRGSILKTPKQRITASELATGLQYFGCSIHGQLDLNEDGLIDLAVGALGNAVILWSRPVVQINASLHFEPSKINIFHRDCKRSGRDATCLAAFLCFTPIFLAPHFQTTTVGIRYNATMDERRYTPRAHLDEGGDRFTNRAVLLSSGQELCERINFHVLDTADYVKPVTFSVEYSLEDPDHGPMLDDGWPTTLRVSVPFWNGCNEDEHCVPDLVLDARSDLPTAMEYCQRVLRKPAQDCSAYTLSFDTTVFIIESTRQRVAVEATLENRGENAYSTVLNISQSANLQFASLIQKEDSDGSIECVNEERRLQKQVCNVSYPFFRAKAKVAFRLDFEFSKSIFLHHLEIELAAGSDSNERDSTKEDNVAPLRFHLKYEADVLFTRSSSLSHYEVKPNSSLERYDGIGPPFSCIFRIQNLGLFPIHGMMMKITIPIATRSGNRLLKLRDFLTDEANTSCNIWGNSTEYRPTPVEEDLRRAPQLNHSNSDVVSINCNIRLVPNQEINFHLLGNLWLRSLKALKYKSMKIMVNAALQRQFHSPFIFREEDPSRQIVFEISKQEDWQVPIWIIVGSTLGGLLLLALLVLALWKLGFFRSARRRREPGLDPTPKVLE
Briefly: FACS antibody binding to CHO-K1 cells expressing human α11. The note with it: binding Yes/No. A digest of the protocol:
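Wild-type or human α11-transfected CHO-K1 cells (endogenous β1) were incubated with antibody at varied concentrations for 30 min at 4° C, then secondary antibody (1:100) 30 min at 4° C. Cells were PFA-fixed and read by flow cytometry; binding EC50 estimated from FACS data.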

Assay [2] has as its system Human Pulmonary Fibroblasts. Briefly: Fibroblast-to-Myofibroblasts Transition (FMT), αSMA expression. It counts as cell-based. To be noted: Yes/No. An outline of the steps:
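Cells seeded at 20,000/well, serum-starved 24 h, then given TGFβ-1 with or without anti-α11 antibodies for 48 h; polyclonal anti-α11 and isotype IgG served as controls. Fixed, permeabilized cells were stained for αSMA and analysed by flow cytometry (single-cell gMFI). Values are normalized to untreated control as % inhibition.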

B1: 5D7: rabbit anti-α11β1 mAb; heavy chain SEQ ID NO: 191, light chain SEQ ID NO: 192 (antibody)
heavy: METGLRWLLLVAVLKGVQCQEQLVESGGGLVQPEGSLTLTCKASGFDFSSNAMCWVRQAPGKGLEWIACIYNGDGSTYYASWVNGRFTISKTSSTTVTLQMTSLTAADTATYFCARGLSNWNRDNLWGPGTLVTVSSGQPKAPSVFPLAPCCGDTPSSTVTLGCLVKGYLPEPVTVTWNSGTLTNGVRTFPSVRQSSGLYSLSSVVSVTSSSQPVTCNVAHPATNTKVDKTVAPSTCSKPMCPPPELPGGPSVFIFPPKPKDTLMISRTPEVTCVVVDVSQDDPEVQFTWYINNEQVRTARPPLREQQFNSTIRVVSTLPIAHQDWLRGKEFKCKVHNKALPAPIEKTISKARGQPLEPKVYTMGPPREELSSRSVSLTCMINGFYPSDISVEWEKNGKAEDNYKTTPTVLDSDGSYFLYSKLSVPTSEWQRGDVFTCSVMHEALHNHYTQKSISRSPGK
light: MDTRAPTQLLGLLLLWLPGATFAQVLTQTPSSVSAAVGGTATINCQASQSLYSPKNLAWYQQTPGQPPKLLIYSASKLASGVPSRFKGSGSGTQFTLTISGVQCDDAAIYYCQGEFSCTTAACFAFGGGTEVVVKGDPVAPTVLIFPPAADQVATGTVTIVCVANKYFPDVTVTWEVDGTTQTTGIENSKTPQNSADCTYNLSSTLTLTSTQYNSHKEYTCKVTQGTTSVVQSFNRGDC
Turning to B1, in the assay with α1β1, α2β1 and/or α10β1, the “Off Target” value was “No”. In addition, the “CHO-K1 FACS” value in assay [1] is recorded as “Yes”. For the same molecule, in assay [2], the “Inhibition of FMT” value is on record as “No”.

B2: 10-L15: mouse anti-α11β1 mAb; VH SEQ ID NO: 119, VL SEQ ID NO: 120 (antibody, V domains shown)
VH: QVQLQQSGPELVRPGASVKMSCKASGYTFTSYWMHWVKQRPGQGLEWIGMIDPSNSETWLNQKFKDKATLNVDKSSNTAYMQLSSLTSEDSAVYYCARYDGYYDYWGQGTTLTVSS
VL: NIVLTQSPASLAVSLGQRATISCRASESVDSYGNSFMHWYQQKPGQPPKLLIYLASNVESGVPARFSGSGSRTDFTLTIDPVEADDAATYYCQQNNEDPWTFGGGTKLEIK
As to B2, the “Off Target” value with α1β1, α2β1 and/or α10β1 is on record as “No”. Moreover, the “CHO-K1 FACS” value in assay [1] is reported as “No”. For the same molecule, the “Inhibition of FMT” value in assay [2] is on record as “No”.

B3: 3B1: rabbit anti-α11β1 mAb; heavy chain SEQ ID NO: 201, light chain SEQ ID NO: 202 (antibody)
heavy: METGLRWLLLVAVLKGVQCQEQLEESGGGLVKPEGSLTLTCKASGFDLSSGYDMCWVRQAPGKGLEWIACIYADYSGSTYYASWVNGRFTISSSTSLNTVDLKMTSLTAADTATYFCARGATGNGGYGYYFNLWGPGTLVTVSSGQPKAPSVFPLAPCCGDTPSSTVTLGCLVKGYLPEPVTVTWNSGTLTNGVRTFPSVRQSSGLYSLSSVVSVTSSSQPVTCNVAHPATNTKVDKTVAPSTCSKPMCPPPELPGGPSVFIFPPKPKDTLMISRTPEVTCVVVDVSQDDPEVQFTWYINNEQVRTARPPLREQQFNSTIRVVSTLPIAHQDWLRGKEFKCKVHNKALPAPIEKTISKARGQPLEPKVYTMGPPREELSSRSVSLTCMINGFYPSDISVEWEKNGKAEDNYKTTPTVLDSDGSYFLYSKLSVPTSEWQRGDVFTCSVMHEALHNHYTQKSISRSPGK
light: MDTRAPTQLLGLLLLWLPGARCADIVMTQTPASVSEPVGGTVTIKCQASQNINSGLAWYQQKPGQPPKLLIYKASTLASGVSSRFKGSGSGTEFTLTISDLECADAATYYCQTYYYSSSSSDNAFGGGTEVVVKGDPVAPTVLIFPPAADQVATGTVTIVCVANKYFPDVTVTWEVDGTTQTTGIENSKTPQNSADCTYNLSSTLTLTSTQYNSHKEYTCKVTQGTTSVVQSFNRGDC
Take B3: in the assay with α1β1, α2β1 and/or α10β1, the “Off Target” value is on record as “No”. The “CHO-K1 FACS” value in assay [1] is listed as “Yes”. The “Inhibition of FMT” value in assay [2] is “No”.

B4: 5A7: rabbit anti-α11β1 mAb; heavy chain SEQ ID NO: 193, light chain SEQ ID NO: 194 (antibody)
heavy: METGLRWLLLVAVLKGVQCQSLEESGGGLVQPEGSLTLACTASGFSFSSYYYICWVRQAPGTGLEWIGCINTGSDDTHYASWLKGRFTFSKASSTTLTLQMTSLTAADTATYFCARSSGSSDDAYDLWGPGTLVTVSSGQPKAPSVFPLAPCCGDTPSSTVTLGCLVKGYLPEPVTVTWNSGTLTNGVRTFPSVRQSSGLYSLSSVVSVTSSSQPVTCNVAHPATNTKVDKTVAPSTCSKPMCPPPELPGGPSVFIFPPKPKDTLMISRTPEVTCVVVDVSQDDPEVQFTWYINNEQVRTARPPLREQQFNSTIRVVSTLPIAHQDWLRGKEFKCKVHNKALPAPIEKTISKARGQPLEPKVYTMGPPREELSSRSVSLTCMINGFYPSDISVEWEKNGKAEDNYKTTPTVLDSDGSYFLYSKLSVPTSEWQRGDVFTCSVMHEALHNHYTQKSISRSPGK
light: MDTRAPTQLLGLLLLWLPGARCDVVMTQTPASVSEPVGGAVTIKCQASQSIGSNLAWYQHKPGQPPKLLIYFASSLASGVSSRFKGGRSGTQFTLTISDLECADAATYYCHCTYYPLSYVTFGGGTEVVVKGDPVAPTVLIFPPAADQVATGTVTIVCVANKYFPDVTVTWEVDGTTQTTGIENSKTPQNSADCTYNLSSTLTLTSTQYNSHKEYTCKVTQGTTSVVQSFNRGDC
Take B4: the “Off Target” value with α1β1, α2β1 and/or α10β1 is given as “No”. The “CHO-K1 FACS” value in assay [1] is given as “Yes”. For the same molecule, in assay [2], the “Inhibition of FMT” value was “No”.
